The supplement of paper PMC7877785
± gives the uncertainty stated by the source.

Test: self-splicing fitness, log relative to wild type (ln ratio); higher = more splicing; Tetrahymena group I intron in knt gene, E. coli kanamycin selection, DiMSum; sequences stand for … in CUCUCU…GGAGGGAAAAGUUAUCAGGCAUGCACCUGGUAGCUAGUCUUUAAACCAAUAGAUUGCAUCGGUUUAAAAGGCAAGACCGUCAAAUUGCGGGAAAGGGGUCAACAGCCGUUCAGUACCAAGUCUCAGGGGAAACUUUGAGAUGGCCUUGCAAAGGGUAUGGUAAUAAGCUGACGGACAUGGUCCUAACCACGCAGCCAAGUCCUAAGUCAACAGAUCUUCUGUUGAUAUGGAUGCAGUUCACAGACUAAAUGUCGGUCGGGGAAGAUGUAUUCUUCUCAUAAGAUAUAGUCGGACCUCUCCUUAAUGGGAGCUAGCGGAUGAAGUGAUGCAACACUGGAGCCGCUGGGAACUAAUUUGUAUGCGAAAGUAUAUUGAUUAGUUUUGGAGUACUCGUGGUCG
How it was run: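 DiMSum derived fitness as the error-weighted combination of fold changes across replicates, kanamycin versus no kanamycin, normalised to wild type. E. coli BL21(DE3) held the library, which randomised all eight P1ex-region intron nucleotides within the knt kanamycin-resistance gene on pET-22b(+). Six replicate transformations grew overnight at 37°C or 30°C on LB agar with or without 25 μg/mL kanamycin, also containing 100 μg/mL carbenicillin, 50 μM IPTG and 0.2% rhamnose, and pooled colonies were amplicon-sequenced on an Illumina HiSeq 2500.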

With AACGAGCAAUAUUACGAAGC the “self-splicing fitness (ln)” value (30 °C) was -3.92 ± 0.42 and the “self-splicing fitness (ln)” value (37 °C) was -1.91 ± 0.37.

For GACGAGCAAUAUUACGCCCA, the “self-splicing fitness (ln)” value (30 °C) was -2.06 ± 0.3 and the “self-splicing fitness (ln)” value (37 °C) was -2.17 ± 0.28.

In the case of CUCAAGCAAUAUUACGUGGC, the “self-splicing fitness (ln)” value (30 °C) is reported as -4.37 ± 0.22 and the “self-splicing fitness (ln)” value (37 °C) is reported as -2.24 ± 0.14.

With CUGGAGCAAUAUUACGAAUU the “self-splicing fitness (ln)” value (37 °C) was -1.27 ± 0.29.

For AGUUAGCAAUAUUACGGCAA, the “self-splicing fitness (ln)” value (30 °C) was -0.82 ± 0.08 and the “self-splicing fitness (ln)” value (37 °C) was 0.163 ± 0.11.

In the case of CUUCAGCAAUAUUACGGAGC, the “self-splicing fitness (ln)” value (30 °C) is reported as -3.04 ± 0.29 and the “self-splicing fitness (ln)” value (37 °C) is reported as -2.65 ± 0.25.

With AUUGAGCAAUAUUACGGGGU the “self-splicing fitness (ln)” value (30 °C) was -3.33 ± 0.25 and the “self-splicing fitness (ln)” value (37 °C) was -3.44 ± 0.27.

For CGUAAGCAAUAUUACGUCGA, the “self-splicing fitness (ln)” value (30 °C) was -2.94 ± 0.21 and the “self-splicing fitness (ln)” value (37 °C) was -3.07 ± 0.2.

For CACAAGCAAUAUUACGGACU, the “self-splicing fitness (ln)” value (30 °C) was -2.54 ± 0.14 and the “self-splicing fitness (ln)” value (37 °C) was -2.11 ± 0.14.

In the case of GGAGAGCAAUAUUACGAGGG, the “self-splicing fitness (ln)” value (30 °C) is reported as -1.99 ± 0.38.

For UAAAAGCAAUAUUACGGCAU, the “self-splicing fitness (ln)” value (30 °C) was -0.376 ± 0.091 and the “self-splicing fitness (ln)” value (37 °C) was -0.235 ± 0.12.

In the case of UAUCAGCAAUAUUACGGACU, the “self-splicing fitness (ln)” value (30 °C) is reported as -0.533 ± 0.058 and the “self-splicing fitness (ln)” value (37 °C) is reported as -0.127 ± 0.071.

For AUGCAGCAAUAUUACGAACC, the “self-splicing fitness (ln)” value (30 °C) was -1.17 ± 0.17 and the “self-splicing fitness (ln)” value (37 °C) was -0.688 ± 0.21.

In the case of GAUCAGCAAUAUUACGGGUU, the “self-splicing fitness (ln)” value (30 °C) is reported as -3.12 ± 0.26 and the “self-splicing fitness (ln)” value (37 °C) is reported as -2.88 ± 0.38.

With CAAGAGCAAUAUUACGGAAC the “self-splicing fitness (ln)” value (30 °C) was -3.74 ± 0.17 and the “self-splicing fitness (ln)” value (37 °C) was -2.52 ± 0.19.

With CCCAAGCAAUAUUACGGAUC the “self-splicing fitness (ln)” value (30 °C) was -4.28 ± 0.23 and the “self-splicing fitness (ln)” value (37 °C) was -2.45 ± 0.15.

For UCGCAGCAAUAUUACGGCAU, the “self-splicing fitness (ln)” value (30 °C) was -1.99 ± 0.074 and the “self-splicing fitness (ln)” value (37 °C) was -0.415 ± 0.077.

In the case of ACUGAGCAAUAUUACGAGAG, the “self-splicing fitness (ln)” value (30 °C) is reported as -3.31 ± 0.18 and the “self-splicing fitness (ln)” value (37 °C) is reported as -3.34 ± 0.32.

For AACCAGCAAUAUUACGGGCG, the “self-splicing fitness (ln)” value (30 °C) was -0.173 ± 0.068 and the “self-splicing fitness (ln)” value (37 °C) was 0.356 ± 0.081.

For ACAGAGCAAUAUUACGCGGG, the “self-splicing fitness (ln)” value (30 °C) was -4.91 ± 0.46 and the “self-splicing fitness (ln)” value (37 °C) was -3.54 ± 0.37.

In the case of CCUUAGCAAUAUUACGUCGG, the “self-splicing fitness (ln)” value (30 °C) is reported as -3.99 ± 0.26 and the “self-splicing fitness (ln)” value (37 °C) is reported as -1.37 ± 0.15.

In the case of AGAGAGCAAUAUUACGACGC, the “self-splicing fitness (ln)” value (30 °C) is reported as -2.54 ± 0.34 and the “self-splicing fitness (ln)” value (37 °C) is reported as -0.3 ± 0.28.

For CAGUAGCAAUAUUACGGAUA, the “self-splicing fitness (ln)” value (30 °C) was -1.58 ± 0.32 and the “self-splicing fitness (ln)” value (37 °C) was -2.79 ± 0.38.

For CCGCAGCAAUAUUACGGCGA, the “self-splicing fitness (ln)” value (30 °C) was -1.15 ± 0.084 and the “self-splicing fitness (ln)” value (37 °C) was -0.544 ± 0.085.

With CCAGAGCAAUAUUACGGAAA the “self-splicing fitness (ln)” value (30 °C) was -3.62 ± 0.32 and the “self-splicing fitness (ln)” value (37 °C) was -2.19 ± 0.27.

In the case of UCUGAGCAAUAUUACGGAUA, the “self-splicing fitness (ln)” value (30 °C) is reported as -3.08 ± 0.47 and the “self-splicing fitness (ln)” value (37 °C) is reported as -1.57 ± 0.25.

For GUCUAGCAAUAUUACGAUCC, the “self-splicing fitness (ln)” value (30 °C) was -0.754 ± 0.16 and the “self-splicing fitness (ln)” value (37 °C) was 0.0678 ± 0.24.

With GCCUAGCAAUAUUACGUGGC the “self-splicing fitness (ln)” value (30 °C) was -3.15 ± 0.32 and the “self-splicing fitness (ln)” value (37 °C) was -1.6 ± 0.33.

With GGCCAGCAAUAUUACGCCUG the “self-splicing fitness (ln)” value (30 °C) was -2.83 ± 0.27 and the “self-splicing fitness (ln)” value (37 °C) was -1.68 ± 0.23.

For ACUUAGCAAUAUUACGCGAG, the “self-splicing fitness (ln)” value (30 °C) was -1.93 ± 0.15 and the “self-splicing fitness (ln)” value (37 °C) was -1.76 ± 0.13.

For ACACAGCAAUAUUACGGACA, the “self-splicing fitness (ln)” value (30 °C) was -1.63 ± 0.095 and the “self-splicing fitness (ln)” value (37 °C) was -1.04 ± 0.089.

For ACUUAGCAAUAUUACGCAAA, the “self-splicing fitness (ln)” value (30 °C) was -3.03 ± 0.41 and the “self-splicing fitness (ln)” value (37 °C) was -1.24 ± 0.25.

For UUCCAGCAAUAUUACGCAUC, the “self-splicing fitness (ln)” value (30 °C) was -3.6 ± 0.23 and the “self-splicing fitness (ln)” value (37 °C) was -2.2 ± 0.17.

For CGAGAGCAAUAUUACGUGGG, the “self-splicing fitness (ln)” value (30 °C) was -2.27 ± 0.35 and the “self-splicing fitness (ln)” value (37 °C) was -1.42 ± 0.28.

In the case of UCGCAGCAAUAUUACGACUU, the “self-splicing fitness (ln)” value (30 °C) is reported as -1.84 ± 0.2 and the “self-splicing fitness (ln)” value (37 °C) is reported as -0.512 ± 0.24.

In the case of UAUGAGCAAUAUUACGGGUC, the “self-splicing fitness (ln)” value (30 °C) is reported as -3.72 ± 0.23 and the “self-splicing fitness (ln)” value (37 °C) is reported as -2.91 ± 0.25.

In the case of CUCCAGCAAUAUUACGAUGU, the “self-splicing fitness (ln)” value (30 °C) is reported as -3.28 ± 0.17 and the “self-splicing fitness (ln)” value (37 °C) is reported as -2.9 ± 0.21.

For ACGCAGCAAUAUUACGUGGG, the “self-splicing fitness (ln)” value (30 °C) was -3.55 ± 0.13 and the “self-splicing fitness (ln)” value (37 °C) was -2.37 ± 0.12.
